The RNAGym collection of RNA variant scans (doi:10.1073/pnas.2313332121)
This sample holds only a part of the variants without activity.

B1: TPR 5TU (parent)
chain: GGAUCUUCUCGAUCUAACAAAAAAGACAAAUCUGCCACAAAGCUUGAGAGCAUCUUCGGAUGCAGAGGCGGCAGCCUUCGGUGGCGCGAUAGCGCCAACGUUCUCAACUAUGACACGCAAAACGCGUGCUCCGUUGAAUGGAGUUUAUCAUG

Variants of: B1
Assay: polymerase ribozyme fitness, log enrichment relative to wild type (log ratio); higher = more active; in vitro selection for triplet polymerase activity
Summary of the method: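 Each subunit of a heterodimeric triplet polymerase ribozyme was mutagenized into a library by PCR, transcribed, and subjected to one round of in vitro selection, run in triplicate. Libraries were annealed with a biotinylated primer, the partner subunit and triplets, incubated frozen at −7 °C, and extended constructs were gel-excised, captured on streptavidin beads and recovered by RT-PCR. Input and output libraries were sequenced on Illumina, keeping genotypes with ≥10 input reads and ≥1 read per output. Fitness is log base 2 of genotype enrichment divided by wild-type enrichment, from inverse-variance-weighted replicate averages.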

Variant	polymerase ribozyme fitness (log ratio)
A24C G42U U44G U61A G80C A110U	≤ -4.2
A24C C51U C105G	≤ -4.2
A24C G62C G86U U102C	≤ -4.2
A22U G86U A120U	-1.56
A24C A30U A138U U144G	≤ -4.2
A24G A26U U56A C87G C123A C132G G133U	≤ -4.2
A23G C93U	-3.77
A23G G81A A121U G141U	-2.76
A24C A28U A37U U134C	≤ -4.2
A22U U31C G81C A89C	1.01
A24C G88U C95G C96U	≤ -4.2
A23U G25C A52C U55A A122C	≤ -4.2
A23C	-3.48
A23G	-1.78
A23U	-3.23
A22U C149U	0.0648
A23C A49G C93U U148C	≤ -4.2
A24C A98U	≤ -4.2
A23C C114G	≤ -4.2
A23U C43G G48A G92A A98G A147U G152C	-3.84
A23U A91G	≤ -4.2

Variant	polymerase ribozyme fitness (log ratio)
A24C A37C C38U G59A C95A A107C C116U	≤ -4.2
A23U A64C G68C	≤ -4.2
A24C U61A C63G G81A G94A	≤ -4.2
A22U G50U C96G U145G	-0.544
A24C C72A C103A U109G G126U	≤ -4.2
A22U G126A	1.07
A23C A29C C38U C57G A64C G84U	≤ -4.2
A23C C43U U53G G81C C87A G143A	≤ -4.2
A24C U53A U55A A98U G126A C149G	≤ -4.2
A23U U55A G88A C114A G136C	≤ -4.2
A23C U44A U45A G74A A91G	≤ -4.2
A23U G46U C87U G88U A119G A120C G133U	≤ -4.2
A23G A52C A98U	-3.98
A23G U130C A138U	-4.2
A23U A40G C87A G141U	≤ -4.2
A24C A30C A41U A66U U82C G86U G94U C116A	≤ -4.2
A23G A91U G140C	≤ -4.2
A23U A24U	-4.12
A23G C72U	-3.74
A23U A29C C51U G68U C72G G94C G136A A147C	≤ -4.2
A23U G50A C132U G140C	≤ -4.2

Variant	polymerase ribozyme fitness (log ratio)
A22U C95A C96A C99U	-1.54
A23U C85U U102A A107U U130G U135G A138C	≤ -4.2
A23U C93U G126U	≤ -4.2
A23G C85A A98C	-3.17
A23U A30G U45A A97G G100U	-4.19
A23G U61G C93G G126A	≤ -4.2
A23U C85U	-3.33
A23U A26U C51A A66U C85U U148C	≤ -4.2
A23C C35G G58A C95A C99A C149U	≤ -4.2
A22U G34A G62C G68C C96A	≤ -4.2
A23G G84U	-3.88
A23C G46C A47G G84U C87A C93U U109G	≤ -4.2
A22U C123G	-0.0344
A23C C75G C103U	≤ -4.2
A22U G46A A115G	-1.54
A23C A24C U61G A110U	≤ -4.2
A22U U45A G68A A122G G140U U146A	≤ -4.2
A23C A28C G46A U55A C96U	≤ -4.2
A24C C118U C125U	≤ -4.2
A23U G50C U139G	≤ -4.2
A23U G84A	-3.32

Variant	polymerase ribozyme fitness (log ratio)
A24C G65A G84C A97G G100U C108G G141C	≤ -4.2
A22U G42C G80A A91G C95G A98U	≤ -4.2
A23U U45C A66G C85U	≤ -4.2
A22U U31G C54G C85U U146C	-0.611
A23G C27U C125A G143U	≤ -4.2
A23C U55A C87G C114G G133U G136U	≤ -4.2
A24C U55A C57U G58U A66G G68C C85A C149G	≤ -4.2
A22U U102G	-2.64
A23C G62C C85G U134A U148C	≤ -4.2
A23G C36U G50U G100A A107G C118G	≤ -4.2
A23U C36U C85A C96G A97U	≤ -4.2
A24C A49C A52C A64U C69A U82G C108U U130A U139G	≤ -4.2
A24C A73U C79U G88U G126A	≤ -4.2
A23U C93A A97G A113G G124U	≤ -4.2
A22U U55A C85G	-2.29
A23U A40G U77A G84A U146G	≤ -4.2
A22U G86C	-3.34
A24C G67A G81C G88A	≤ -4.2
A23U G74U U82G	≤ -4.2
A23U A26C A30U U56A A60C G86U G88C C95G G124U A137U U148C	≤ -4.2
